From US6191256A, “Recombinant factor VIII binding peptides” (Bayer Corporation, priority 1998, dated 2001)

What was measured:
[1] = molecular target: T1, rFVIII (Homo sapiens, UniProt P00451); assay: confirmatory binding assay in filtration plate format using 14C-rFVIII; conditions: for 0.5M CaCl2 % total / 2% acetic acid % total / 2% acetic acid dpm / 0.5M CaCl2 dpm: 5 mg beads; for 0.5M CaCl2 dpm: 5° C.; for beads % total / beads dpm: remaining on beads after washes
Experimental: Confirmatory binding assays were performed in a filtration plate format using individual peptide sequences synthesized directly onto the TOYOPEARL AF amino 650 M resin, at a final substitution density of 0.1 mmole/g resin. A slurry of each individual peptide sequence was prepared using deionized water. A 100 μL volume of beads (corresponding to 5 mg) was loaded into each well of the filtration plate (MULTISCREEN Assay System, Millipore, Bedford, Mass.), in triplicate for each peptide sequence. Beads were washed with 20% ethanol and incubated overnight with equilibration buffer (20 mM imidazole, 10 mM
CaCl2, 0.105 M NaCl, pH 6.9). A 100 μL aliquot of ^14 C-rFVIII diluted in neat PPF to a final concentration of 20-30 nM was loaded into each well and incubated for 1 hour at 5° C. Filtrate (unbound ^14 C-rFVIII) was collected into a microtiter plate and transferred to liquid scintillation vials for dpm counting. Beads were washed sequentially with: 100 μL of equilibration buffer for 15 minutes, 200 μL of 0.5 M CaCl2 (in equilibration buffer), 200 μL of 1.0 M CaCl2 (in equilibration buffer), and 200 uL of 2% by volume glacial acetic acid in water, for 1 hour each at 5° C. Scintillation counting on the unbound ^14 C-rFVIII (plus equilibration buffer wash), salt and acid washes, as well as on the beads was then performed and the overall mass balance calculated.
Beads presenting the appropriate peptide sequence on the surface were placed in the filtration plate wells and incubated sequentially with equilibration buffer, ^14 C-rFVIII in PPF, equilibration buffer, 0.5 M CaCl2 wash, 1.0 M CaCl2 wash and 2% acetic acid wash. After each incubation, filtrate was collected in microtiter plates, and dpm counted on each
In Table 3, the ^14 C-rFVIII was loaded at 20 nM (in PPF) and the radiolabeling yield was at 3.0×10^15 dpm/mole. In Table 4, the ^14 C-rFVIII was loaded at 30 nM (in PPF) and the radiolabeling yield was at 5.0×10^15 dpm/mole.

[2] = molecular target: T1, rFVIII; assay: column format binding assay, rFVIII mass per fraction by sandwich capture ELISA for the light chain; conditions: for Flow through ng: 10,000 ng rFVIII in 1:10 PPF injected, 5° C.; for ELISA results % total: Table 9, 0.5M CaCl2 fraction
Experimental: (§1) Immunoassay on rFVIII using a sandwich capture ELISA for the light chain and activity assay using a chromogenic substrate (COATEST Factor VIII kit from diaPharma, Franklin, Ohio) were performed on a BIOMEK® automated liquid handling system from Beckman Instruments (Brea, Calif.). The monoclonal antibody for rFVIII light chain (known as C7F7), the ELISA assay standard (lot A70K019), and the control for the activity assay (lot A70A001 @ 140 IU/mL) were from the Bayer Corporation (Berkeley, Calif.). The standard for the activity assay was at 11.2 IU/mL (Bayer, Clayton, N.C.), calibrated against the MEGA 1 standard, which is a working standard used by American manufacturers for measuring factor VIII activity (21).
(§2) Additional confirmatory binding assay and performance of the discovered binding peptides in terms of total rFVIII and activity recovery was performed in a column chromatographic format on a microbore HPLC. The resins were packed into 0.4×5 cm columns (Thomson, Springfield, Va.) and tested on the MICHROM HPLC system (Michrom BioResources, Auburn, Calif.). The elution program for the trials utilized the following method. The column was pre-equilibrated with equilibration buffer (as above). A 1 mL aliquot of 1:10 PPF followed by 1 mL of rFVIII (10,000 ng) in 1:10 PPF were injected and allowed sufficient time to flow through the column using equilibration buffer. The column was then washed with step elutions of 0.5 M and 1.0 M CaCl2 in equilibration buffer. The column was exposed to equilibration buffer. Remaining protein was eluted with 2% by volume glacial acetic acid in water. Columns were kept at 5° C. during the chromatographic runs. For each 1 mL injection (equilibration buffer, 1:10 PPF and 10,000 ng rFVIII in 1:10 PPF), the chromatographic cycle was run for 45 minutes (injection, flow through, 0.5 M CaCl2, 1.0 M CaCl2, equilibration buffer, 2% acetic acid, equilibration buffer).
(§3) A Gilson FC204 fraction collector at the HPLC outlet collected individual eluates for further analysis. Each collection tube had 100 μL hSA added to it to stabilize the rFVIII. Fractions collected from the 2% acetic acid eluates were neutralized with 2 M Tris, pH 10.5 to bring the pH to neutrality. The fractions were analyzed for total protein by the integration of the absorbance at 280 nm, for rFVIII by immunoassay (sandwich capture ELISA), and for rFVIII activity by a chromogenic substrate assay.
Tables 5 and 6 present the results from the additional confirmatory binding assays using the column format. The chromatography method was run by injecting the samples at a flow rate of 865 μL/min (413 cm/hr). In order to provide a 10 minute residence time of sample in the column the flow was decreased to 17 μL/min (10 cm/hr) upon injection.
Following the incubation, the flow was set at 865 μL/min (413 cm/hr) for the step clutions of 0.5 M CaCl2, 1.0 M CaCl2, and 2% acetic acid. Results are expressed in terms of the total mass of rFVIII in each fraction, as determined by the sandwich capture ELISA assay for the rFVIII light chain. […] A control using a non-binding peptide sequence (IGF) is also shown for comparison--in this case, 95% of the rFVIII loaded to the column was collected in the flow through fraction. Additional controls with no

[3] = molecular target: T1, rFVIII; assay: rFVIII activity recovery from peptide columns by chromogenic substrate assay (COATEST); format: biochemical; conditions: for 0.5M CaCl2 % total: activity recovery; for Flow through IU: rFVIII activity in fraction; for Activity results % total: Table 9, 0.5M CaCl2 fraction
Experimental: as §1, §2, §3
Tables 7 and 8 list the sequences for which activity recovery was determined by a chromogenic substrate assay (COASTEST kit, diaPharma, Franklin, Ohio). Chromatographc conditions are the same as described above for the results from Tables 5 and 6. It can be

[4] = Table 4, 14C-rFVIII 30 nM in PPF
[5] = Table 4, 14C-rFVIII 30 nM in PPF, 5.0 × 10^15 dpm/mole
[6] = Table 3, 14C-rFVIII 20 nM in PPF

T1 sequence (P00451 20-2351): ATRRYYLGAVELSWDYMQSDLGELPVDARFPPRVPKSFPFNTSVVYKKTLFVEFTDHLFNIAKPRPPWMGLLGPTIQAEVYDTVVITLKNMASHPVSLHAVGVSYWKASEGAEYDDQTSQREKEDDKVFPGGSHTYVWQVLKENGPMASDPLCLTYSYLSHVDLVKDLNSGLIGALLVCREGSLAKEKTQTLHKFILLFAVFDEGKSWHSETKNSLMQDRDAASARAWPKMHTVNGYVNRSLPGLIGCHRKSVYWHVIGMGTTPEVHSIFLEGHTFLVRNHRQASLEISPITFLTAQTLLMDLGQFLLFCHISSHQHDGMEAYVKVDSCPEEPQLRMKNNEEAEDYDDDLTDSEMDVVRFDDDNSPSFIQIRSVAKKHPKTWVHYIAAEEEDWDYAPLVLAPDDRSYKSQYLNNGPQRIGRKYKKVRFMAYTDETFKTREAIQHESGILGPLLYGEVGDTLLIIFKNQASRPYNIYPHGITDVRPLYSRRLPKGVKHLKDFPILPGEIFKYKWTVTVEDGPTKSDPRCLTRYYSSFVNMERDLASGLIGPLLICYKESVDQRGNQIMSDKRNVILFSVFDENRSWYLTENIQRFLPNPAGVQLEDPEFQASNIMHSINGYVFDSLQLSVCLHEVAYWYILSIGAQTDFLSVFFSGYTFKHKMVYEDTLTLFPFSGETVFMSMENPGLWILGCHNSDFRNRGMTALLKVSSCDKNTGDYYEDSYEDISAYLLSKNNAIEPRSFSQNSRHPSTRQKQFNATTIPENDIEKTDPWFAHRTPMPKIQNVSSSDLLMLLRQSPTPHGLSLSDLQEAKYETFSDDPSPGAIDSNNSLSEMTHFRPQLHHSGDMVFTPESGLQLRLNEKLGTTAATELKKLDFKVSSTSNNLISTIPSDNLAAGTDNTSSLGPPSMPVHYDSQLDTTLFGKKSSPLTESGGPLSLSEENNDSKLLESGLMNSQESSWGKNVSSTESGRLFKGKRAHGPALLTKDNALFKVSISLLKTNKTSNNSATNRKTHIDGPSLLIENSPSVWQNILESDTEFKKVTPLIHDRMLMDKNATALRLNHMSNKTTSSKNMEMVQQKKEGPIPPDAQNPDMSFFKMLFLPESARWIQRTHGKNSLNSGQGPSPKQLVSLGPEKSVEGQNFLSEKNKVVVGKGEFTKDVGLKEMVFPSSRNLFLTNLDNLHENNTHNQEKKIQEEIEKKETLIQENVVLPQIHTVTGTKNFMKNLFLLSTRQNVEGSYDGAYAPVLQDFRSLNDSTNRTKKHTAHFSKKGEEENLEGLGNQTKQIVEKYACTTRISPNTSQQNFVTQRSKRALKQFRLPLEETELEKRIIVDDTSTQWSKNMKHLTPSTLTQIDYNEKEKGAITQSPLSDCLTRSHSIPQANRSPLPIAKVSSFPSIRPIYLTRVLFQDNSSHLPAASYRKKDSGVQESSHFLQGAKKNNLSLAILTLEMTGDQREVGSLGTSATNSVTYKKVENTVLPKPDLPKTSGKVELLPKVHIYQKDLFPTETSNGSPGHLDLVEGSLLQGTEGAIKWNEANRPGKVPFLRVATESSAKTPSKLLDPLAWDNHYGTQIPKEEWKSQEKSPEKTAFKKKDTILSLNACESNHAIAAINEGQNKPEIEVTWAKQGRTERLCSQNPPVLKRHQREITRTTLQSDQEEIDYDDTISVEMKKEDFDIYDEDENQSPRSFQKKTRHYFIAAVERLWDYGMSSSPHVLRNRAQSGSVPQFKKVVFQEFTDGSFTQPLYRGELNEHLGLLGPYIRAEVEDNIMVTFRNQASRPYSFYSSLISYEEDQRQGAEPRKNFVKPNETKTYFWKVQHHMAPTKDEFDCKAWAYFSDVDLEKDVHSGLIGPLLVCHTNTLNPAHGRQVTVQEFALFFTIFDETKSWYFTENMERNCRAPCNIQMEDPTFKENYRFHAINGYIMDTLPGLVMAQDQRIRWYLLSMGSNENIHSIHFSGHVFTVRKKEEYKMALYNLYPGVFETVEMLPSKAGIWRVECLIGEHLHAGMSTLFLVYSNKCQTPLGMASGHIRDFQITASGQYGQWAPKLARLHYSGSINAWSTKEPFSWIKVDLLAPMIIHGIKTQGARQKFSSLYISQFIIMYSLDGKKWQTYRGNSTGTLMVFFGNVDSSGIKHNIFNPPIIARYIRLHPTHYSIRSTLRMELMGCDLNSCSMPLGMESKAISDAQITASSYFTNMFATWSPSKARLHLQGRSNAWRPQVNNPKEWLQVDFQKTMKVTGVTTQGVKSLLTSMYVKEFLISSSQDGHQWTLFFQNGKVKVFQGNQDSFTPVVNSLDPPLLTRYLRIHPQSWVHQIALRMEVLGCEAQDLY
T1 sequence (P00451 1668-2351 limits assumed): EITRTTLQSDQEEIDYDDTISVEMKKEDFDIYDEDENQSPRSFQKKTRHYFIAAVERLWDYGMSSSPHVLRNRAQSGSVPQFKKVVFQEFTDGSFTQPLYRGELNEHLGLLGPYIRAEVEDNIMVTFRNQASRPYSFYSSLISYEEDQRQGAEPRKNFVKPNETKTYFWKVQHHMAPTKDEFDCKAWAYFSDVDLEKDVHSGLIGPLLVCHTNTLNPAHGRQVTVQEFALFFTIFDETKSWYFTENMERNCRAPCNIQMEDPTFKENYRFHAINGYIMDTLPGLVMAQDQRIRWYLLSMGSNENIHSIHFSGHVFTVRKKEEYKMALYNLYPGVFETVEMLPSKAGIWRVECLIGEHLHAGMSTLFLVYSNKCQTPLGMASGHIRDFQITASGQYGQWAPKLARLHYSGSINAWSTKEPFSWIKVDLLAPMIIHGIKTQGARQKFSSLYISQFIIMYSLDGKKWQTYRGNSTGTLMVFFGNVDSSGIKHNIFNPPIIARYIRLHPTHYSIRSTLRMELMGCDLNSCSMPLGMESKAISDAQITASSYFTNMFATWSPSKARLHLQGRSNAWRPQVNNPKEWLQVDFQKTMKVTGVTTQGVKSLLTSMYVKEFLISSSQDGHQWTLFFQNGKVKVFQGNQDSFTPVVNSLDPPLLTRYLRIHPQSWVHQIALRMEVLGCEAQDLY

In the case of 14 (EPRVIG) [compound 14], the Total dpm ([1]; Table 4, 14C-rFVIII 30 nM) is reported as 2184 dpm, the “0.5M CaCl2 % total” value [1, 4] is reported as 91% and the “2% acetic acid % total” value [1, 4] is reported as 6%. For the same substance, the “2% acetic acid dpm” value [1, 4] was 130 dpm, the “0.5M CaCl2 dpm” value [1, 5] was 1994 dpm and the beads % total ([1]; Table 4, 14C-rFVIII 30 nM) was 3%. For the same substance, the beads dpm ([1]; Table 4, 14C-rFVIII 30 nM) was 60 dpm, the “0.5M CaCl2 ng” value ([2]; Table 6) was 2850 ng and the “0.5M CaCl2 % total” value ([2]; Table 6) was 32%. For the same substance, the “2% acetic acid % total” value ([2]; Table 6) was 1%, the “2% acetic acid ng” value ([2]; Table 6) was 75 ng and the “Flow through % total” value ([2]; Table 6) was 66%. For the same substance, the Total ng ([2]; Table 6) was 8851 ng, the Flow through ng ([2]; Table 6) was 5828 ng and the “ELISA results % total” value [2] was 32%. The “0.5M CaCl2 IU” value ([3]; Table 8) was 14.7 IU, the “2% acetic acid % total” value ([3]; Table 8) was 0% and the “2% acetic acid IU” value ([3]; Table 8) was 0.00 IU. The “Flow through % total” value ([3]; Table 8) was 73%, the “Total IU” value ([3]; Table 8) was 58.6 IU and the “0.5M CaCl2 % total” value ([3]; Table 8) was 25%. For the same substance, the “Flow through IU” value ([3]; Table 8) was 42.9 IU and the “Activity results % total” value [3] was 25%.

With 2 (RNPPNN) [compound 2] the Total dpm ([1]; Table 3, 14C-rFVIII 20 nM) was 2767 dpm, the “0.5M CaCl2 % total” value [1, 6] was 86% and the “2% acetic acid % total” value [1, 6] was 12%. The “2% acetic acid dpm” value [1, 6] was 322 dpm, the “0.5M CaCl2 dpm” value ([1]; Table 3, 14C-rFVIII 20 nM in PPF, 3.0 × 10^15 DPM/mole) was 2366 dpm and the beads % total ([1]; Table 3, 14C-rFVIII 20 nM) was 3%. For the same substance, the beads dpm ([1]; Table 3, 14C-rFVIII 20 nM) was 79 dpm, the “0.5M CaCl2 ng” value ([2]; Table 5) was 5745 ng and the “0.5M CaCl2 % total” value ([2]; Table 5) was 92%. For the same substance, the “2% acetic acid % total” value ([2]; Table 5) was 0%, the “2% acetic acid ng” value ([2]; Table 5) was 31 ng and the “Flow through % total” value ([2]; Table 5) was 7%. The Total ng ([2]; Table 5) was 6245 ng, the Flow through ng ([2]; Table 5) was 447 ng and the “ELISA results % total” value [2] was 92%. For the same substance, the “0.5M CaCl2 IU” value ([3]; Table 7) was 51.6 IU, the “2% acetic acid % total” value ([3]; Table 7) was 1% and the “2% acetic acid IU” value ([3]; Table 7) was 0.5 IU. The “Flow through % total” value ([3]; Table 7) was 1%, the “Total IU” value ([3]; Table 7) was 54.3 IU and the “0.5M CaCl2 % total” value ([3]; Table 7) was 95%. The “Flow through IU” value ([3]; Table 7) was 0.4 IU and the “Activity results % total” value [3] was 95%.

9 (FALPGR) [compound 9] was tested, and the Total dpm ([1]; Table 4, 14C-rFVIII 30 nM) was 3658 dpm, the “0.5M CaCl2 % total” value [1, 4] was 93% and the “2% acetic acid % total” value [1, 4] was 5%. For the same substance, the “2% acetic acid dpm” value [1, 4] was 176 dpm, the “0.5M CaCl2 dpm” value [1, 5] was 3414 dpm and the beads % total ([1]; Table 4, 14C-rFVIII 30 nM) was 2%. The beads dpm ([1]; Table 4, 14C-rFVIII 30 nM) was 68 dpm, the “0.5M CaCl2 ng” value ([2]; Table 6) was 7154 ng and the “0.5M CaCl2 % total” value ([2]; Table 6) was 97%. For the same substance, the “2% acetic acid % total” value ([2]; Table 6) was 2%, the “2% acetic acid ng” value ([2]; Table 6) was 181 ng and the “Flow through % total” value ([2]; Table 6) was 0%. For the same substance, the Total ng ([2]; Table 6) was 7403 ng, the Flow through ng ([2]; Table 6) was 0 ng and the “ELISA results % total” value [2] was 97%. The “0.5M CaCl2 IU” value ([3]; Table 8) was 68.9 IU, the “2% acetic acid % total” value ([3]; Table 8) was 0% and the “2% acetic acid IU” value ([3]; Table 8) was 0.1 IU. The “Flow through % total” value ([3]; Table 8) was 0%, the “Total IU” value ([3]; Table 8) was 70.2 IU and the “0.5M CaCl2 % total” value ([3]; Table 8) was 98%. The “Flow through IU” value ([3]; Table 8) was 0.0 IU and the “Activity results % total” value [3] was 98%.

15 (VYGVGG) [compound 15] was tested, and the Total dpm ([1]; Table 4, 14C-rFVIII 30 nM) was 2330 dpm, the “0.5M CaCl2 % total” value [1, 4] was 93% and the “2% acetic acid % total” value [1, 4] was 5%. For the same substance, the “2% acetic acid dpm” value [1, 4] was 115 dpm, the “0.5M CaCl2 dpm” value [1, 5] was 2162 dpm and the beads % total ([1]; Table 4, 14C-rFVIII 30 nM) was 2%. The beads dpm ([1]; Table 4, 14C-rFVIII 30 nM) was 53 dpm, the “0.5M CaCl2 ng” value ([2]; Table 6) was 4611 ng and the “0.5M CaCl2 % total” value ([2]; Table 6) was 55%. For the same substance, the “2% acetic acid % total” value ([2]; Table 6) was 1%, the “2% acetic acid ng” value ([2]; Table 6) was 121 ng and the “Flow through % total” value ([2]; Table 6) was 42%. The Total ng ([2]; Table 6) was 8427 ng, the Flow through ng ([2]; Table 6) was 3572 ng and the “ELISA results % total” value [2] was 55%. The “0.5M CaCl2 IU” value ([3]; Table 8) was 27.2 IU, the “2% acetic acid % total” value ([3]; Table 8) was 0% and the “2% acetic acid IU” value ([3]; Table 8) was 0.08 IU. The “Flow through % total” value ([3]; Table 8) was 38%, the “Total IU” value ([3]; Table 8) was 45.4 IU and the “0.5M CaCl2 % total” value ([3]; Table 8) was 60%. The “Flow through IU” value ([3]; Table 8) was 17.3 IU and the “Activity results % total” value [3] was 60%.
